In the supplement of paper PMC9170038:

Test system: MS2 coat protein
Test: apparent KD of MS2 coat protein; designed switch direction (-1 OFF switch, 1 ON switch): 1; higher = weaker reporter binding
Outline: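 RNA switches sharing common flanks were transcribed by stalled E. coli RNA polymerase on Illumina chips. A doubling series of SNAP-549-labelled MS2 coat protein, from 0.7 or 1.5 nM to 3 µM, was applied in Tris-HCl pH 7.5 buffer with KCl, MgCl2, BSA, DTT, tRNA and Tween-20. Each step lasted 0.8–1.5 h at the bottom of the series and 10–20 min at the top. Normalised cluster fluorescence was curve-fitted, giving apparent KD as the per-design median over clusters.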

[1] = input ligand: microRNA oligo, concentration not stated
[2] = Eterna round: R95, input ligand: FMN 200 uM
[3] = Eterna round: R95, input ligand: microRNA oligo, concentration not stated
[4] = Eterna round: R95, input ligand: none

Row | Sequence | apparent KD of MS2 coat protein (input ligand: FMN 200 uM) | apparent KD of MS2 coat protein [1] | apparent KD of MS2 coat protein (input ligand: none) | apparent KD of MS2 coat protein [2] | apparent KD of MS2 coat protein [3] | apparent KD of MS2 coat protein [4]
1 | CCGCCGGGAACCCGGCGGAAACAUGAGGAUCACCCAUGUACACAGGAUAUCGUGACAUUAACAAACGAGAAGGGUGGCCGAGAC [Atre] (Eterna round: R96, puzzle: Same State NG 3) | 345 nM | 91.6 nM | 137 nM |  |  | 
2 | CCGCUCCGUGGAGGAUAUGGGCCUGCCCGGGAUAACGGGCCUAACACAUGAGGAUCACCCAUGUCCCAGAAGGCCGCUGGAGCC [Atxerexebe] (Eterna round: R96, puzzle: Same State NG 2) | 24.8 nM | 40 nM | 113 nM |  |  | 
3 | CCGGUAAAUGGAGGAUAUGGAGCCUUAUUGGCUCCAGAAGGCUAACAUGAGGAUCACCCAUGUAUACCGGCGGUCAAUAGACCG [Eli NG1ss - 64] (Eterna round: R96, puzzle: Same State NG 1) | 11 nM | 16.3 nM | 21.8 nM |  |  | 
4 | CCGGUGAUAGGGCAGGAUAUGACUGUCGUCACAUGAGGAUCACCCAUGUCCCGGCAAUGCCACCGUUAGAAGGGCCCUAUCCCGA [Teuszaesti] (puzzle: Same State 2) |  |  |  | 14.8 nM | 12.1 nM | 15 nM
5 | CCUAUAGCCACAGGAUAUGAGAACACGUUGAACGUACAUGAGGAUCACCCAUGUCGCCGAUCGACUUAGAAGGGUGGCCCUCGC [Eternabot solution 26] (Eterna round: R96, puzzle: Same State NG 2) | 34.4 nM | 37.9 nM | 29.4 nM |  |  | 
6 | CGGCGCUGUCGAGAGGAUAUGCGGUGACGGACAUGAGGAUCACCCAUGUUAGCGAUAGCGUUACGGUAGAAGGCUCUACAGUCGC [Soteed Omei mod 10] (Eterna round: R96, puzzle: Same State 2) | 19.1 nM | 125 nM | 217 nM |  |  | 
7 | CGGCGCUGUCGAGAGGAUAUGCGGUGACGGACAUGAGGAUCACCCAUGUUAGCGAUAGCGUUACGGUAGAAGGCUCUACAGUCGC [Soteed Omei mod 10] (puzzle: Same State 2) |  |  |  |  | 49.2 nM | 
8 | CGGGUACAUGAGGAUCACCCAUGUUGGAGUAAUGCAGGAUAUGUGAGACGAGAAGAUAAAACAGAAGGGCAAGGAG [JR_SS!_Sub009] (puzzle: Same State 1) |  |  |  | 37.4 nM | 95 nM | 77.6 nM
9 | CGUCCAGCCUGAGCUGGACAAAAGCAUGUACAUGAGGAUCACCCAUGUUCAUGUACAAGCUUUUUGCUCGUCUUAUU [salish99_208a_r3_050] (puzzle: Sensor for hsa-mir-208a) |  |  |  | 681 nM | 16.1 nM | 739 nM
10 | CGUCCCUCCACAGGAUAUCGACCAUUAAAACGGCGAGAAGGGUGGCCACAUGAGGAUCACCCAUGUGGAAUUGGACAAGCUACC [Veonso] (Eterna round: R96, puzzle: Same State NG 1) | 127 nM | 23.9 nM | 127 nM |  |  | 
11 | CGUCCGGCCUGUGCUGGCCGGCGGCUUGUACAUGAGGAUCACCCAUGUUCUUGUGCUGGCUUUUUGCUCGUCUUGUG [salish99_mir208a_022] (puzzle: Sensor for hsa-mir-208a) |  |  |  | 32.2 nM | 16.3 nM | 39.5 nM
12 | CUCAAACAUGAGGAUCACCCAUGUGUUGUCAUGGGAGGAUAUCUAAGUUCGUUGUAGUCGGGAGAAGGCCUAUGUC [× ×•×ª×• ×ž×“×™× ×” × ×—×ª-11] (puzzle: Same State 1) |  |  |  |  | 182 nM | 
13 | CUCAACAACACAGGAUAUCCAGGGAAAAGCCCUGGAGAAGGGUGACCAACAUGAGGAUCACCCAUGUGACGGCUAAACCGUCUG [Inususisre] (Eterna round: R96, puzzle: Same State NG 1) | 319 nM | 509 nM | 60.7 nM |  |  | 
14 | CUCUUACAUGAGGAUCACCCAUGUGUUGUCGUGGGAGGAUAUCCUGGUUCGGUGGCGUUGGGAGAAGGCCUAUGUC [× ×•×ª×• ×ž×“×™× ×” × ×—×ª-18] (puzzle: Same State 1) |  |  |  |  | 378 nM | 
15 | CUGAGCAAGCAAGGAUAUCACGUCGAAUAGACGUGAGAAGGUGCUCCUUACAUGAGGAUCACCCAUGUAUAACAUGAAGCUCAG [SSNG1/10-A1] (Eterna round: R96, puzzle: Same State NG 1) | 254 nM | 869 nM | 1260 nM |  |  | 
16 | CUGAGCAAUCAAGGAUAUCACGUCGUUUAGACGUGAGAAGGUGAUCAUAACAUGAGGAUCACCCAUGUAUUACAUGAAGCUCAG [SSNG1/1-A3] (Eterna round: R96, puzzle: Same State NG 1) | 767 nM | 363 nM | 919 nM |  |  | 
17 | CUGAGCAAUCUAGGAUAUCACGUCGAUUAGACGUGAGAAGGAGAUCAUAACAUGAGGAUCACCCAUGUAUUACAUGAAGCUCAG [SSNG1/7-A2] (Eterna round: R96, puzzle: Same State NG 1) | 11.7 nM | 13.8 nM | 19.1 nM |  |  | 
18 | CUGAGCAGUCAAGGAUAUCACGUCGAUUAGACGUGAGAAGGUGAUCAUUACAUGAGGAUCACCCAUGUGUUACAUGGAGCUCAG [Brourd's SSNG1/1-A2 mod 5] (Eterna round: R96, puzzle: Same State NG 1) | 413 nM | 49.1 nM | 358 nM |  |  | 
19 | CUGAGCGAUCAAGGAUAUCACGUCGUUUAGACGUGAGAAGGUGAUAAUUACAUGAGGAUCACCCAUGUAUAACAUGAAGCUCAG [SSNG1/9-A3] (Eterna round: R96, puzzle: Same State NG 1) | 14 nM | 16.4 nM | 21 nM |  |  | 
20 | CUGUGUUGCGGGCAGGAUAUGUACUUGAGUACAUGAGGAUCACCCAUGUGCGGGUGUUUCACCCGACAGAAGGGCCUAUCGCGAC [JL-ss2-3.24 ViennaUCT mod] (puzzle: Same State 2) |  |  |  | 140 nM | 395 nM | 329 nM
21 | CUUUCUCUUGCAGGAUAUCCUAGUCUUCGGUUAGGAGAAGGGCAAGGAAACUUGCUAAGCAAGUCUGUAACAGAGAUCCUUCCU [pwkr ssNG1 F9.2] (Eterna round: R96, puzzle: Same State NG 1) | 124 nM | 78.2 nM | 164 nM |  |  | 
22 | CUUUUUCCUUUUACAUGAGGAUCACCCAUGUUUUCAUAUUGAGAGGAUAUCGUAUUUGGAAUUUUCGAGAAGGCUCAUUUGUAU [JR_SSNG3_Sub075] (Eterna round: R96, puzzle: Same State NG 3) | 39.4 nM | 25.5 nM | 28.9 nM |  |  | 
23 | GAAAAGACAUGAGGAUCACCCAUGUGGUAGACAGCUAGACGCAAGGAUAUGCAUGUGAUUCUCAUGCAGAAGGUGCUUCUAGGU [Eternabot solution 12] (Eterna round: R96, puzzle: Same State NG 3) | 37.6 nM | 53.3 nM | 68.6 nM |  |  | 
24 | GAAAAGCAGAGAGGAUAUGUCACUCAUGCCGUGACACAUGAGGAUCACCCAUGUUCAAUCCGGCCGCAGAAGGCUCCGCGAAAA [Eternabot solution 25] (Eterna round: R96, puzzle: Same State NG 2) | 8.9 nM | 9.13 nM | 10.8 nM |  |  | 
25 | GAAUUUGAACUACAGGAUAUAUAGCAGAUGACAUGAGGAUCACCCAUGUAAGAGAAAGGAGGGAAAUAGAAGGGUAUGGGAGGUG [JR_SS2_Sub034] (puzzle: Same State 2) |  |  |  | 34.5 nM | 32.9 nM | 37.7 nM
26 | GACAAUCUAUCUGAGGAUAUCAUGAUAAUAACAUGAGGAUCACCCAUGUGCAGGAAAACUGCAUAUGAGAAGGCAGAUAGAUUGA [Mat - Same State 2 - Mod - D14] (puzzle: Same State 2) |  |  |  | 34.2 nM | 62.3 nM | 294 nM
27 | GACUGCGUUAUGAAGGAUAUCCGCGUCUGGACAUGAGGAUCACCCAUGUAUACUUGGAUCGUGCAGGAGAAGGUCAAGGGUGAUU [JR_SS002_Sub1210] (Eterna round: R96, puzzle: Same State 2) | 507 nM | 163 nM | 243 nM |  |  | 
28 | GAGAGACGAUUAGGAUAUCCGGUGAUAAUGAUAGGAGAAGGAAUUGACAUGAGGAUCACCCAUGUGGGAAUAAUCCAGAGAGAG [Parity 24 - Jieux - Same State NG 1] (Eterna round: R96, puzzle: Same State NG 1) | 86.5 nM | 66.5 nM | 89.7 nM |  |  | 
